± gives the standard deviation of the averaged measurements.
B1: library; numbered along this chain (parent)
chain: MNIQIGELAKRTACPVVTIRFYEQEGLLPPPGRSRGNFRLYGEEHVERLQFIRHCRSLDMPLSDVRTLLSYRKRPDQDCGEVNMLLDEHIRQVESRIGALLELKHHLVELREACSGARPAQSCGILQGLSDCVCDTRGTTAHPSD

How the values were obtained:
[1] = variants of: B1; assay: sfGFP reporter fluorescence (15 h) (µM FITC); higher = higher leak; conditions: library round: Round 0; ligand: none
Procedure, shortened: (§1)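 An Echo normalized PCR-made linear PbrR templates to 5 nM and assembled 1 μL reactions in BL21 Star (DE3) PANOx-SP extract carrying the pPbrR-sfGFP reporter plasmid and 30 μg/mL GamS. Reactions received 1 µM lead chloride, 30 µM zinc acetate or no metal and stood 15 hr at 30 °C. Fluorescence at 485/528 nm (Synergy Neo2) was converted with FITC standard curves made in 50 mM sodium borate pH 8.5. Endpoint sfGFP signal is given in µM FITC, from up to three biological replicates.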

[2] = variants of: B1; assay: sfGFP reporter fluorescence (15 h) (µM FITC); higher = stronger transcriptional activation; conditions: library round: Round 0
Procedure, shortened: as §1

Row | Variant | sfGFP reporter fluorescence [1] | sfGFP reporter fluorescence ([2]; ligand: 1 µM Pb) | sfGFP reporter fluorescence ([2]; ligand: 30 µM Zn)
1 | C123K | 0.0592 ± 0.0039 | 0.0597 ± 0.001 | 0.0574 ± 0.0029
2 | C123F | 0.0564 ± 0.0015 | 0.0577 ± 0.00078 | 0.0528 ± 0.0015
3 | C123Y | 0.0586 ± 0.0015 | 0.0579 | 0.0546 ± 0.0026
4 | C123T | 0.0586 ± 0.0021 | 0.0572 ± 0.0015 | 0.0568 ± 0.0036
5 | C123D | 0.0577 ± 0.0039 | 0.0586 | 0.0564 ± 0.0031
6 | C123I | 0.05479 ± 0.00026 | 0.0553 ± 0.001 | 0.0517 ± 0.0021
7 | C123Q | 0.0585 ± 0.00078 | 0.05809 ± 0.00026 | 0.0546 ± 0.0015
8 | C123M | 0.057 ± 0.0013 | 0.0577 ± 0.00078 | 0.0544 ± 0.0034
9 | C123V | 0.05589 ± 0.00026 | 0.0579 ± 0.0015 | 0.0541 ± 0.0018
10 | C123W | 0.0575 ± 0.001 | 0.05919 ± 0.00026 | 0.0546 ± 0.0026
11 | C123S | 0.0575 ± 0.0021 | 0.0575 ± 0.001 | 0.0552 ± 0.0018
12 | C123E | 0.0583 ± 0.001 | 0.0588 ± 0.00078 | 0.0557 ± 0.001
13 | C123P | 0.0559 ± 0.00078 | 0.05772 ± 0.00026 | 0.0526 ± 0.00078
14 | L107C G128M | 3.17 ± 0.33 | 3.98 ± 0.14 | 4.14 ± 0.45
15 | C114Y | 0.0585 ± 0.0018 | 0.0586 | 0.0544 ± 0.0013
16 | C114V | 0.0566 ± 0.00078 | 0.0555 ± 0.00078 | 0.05186 ± 0.00026
17 | C114P | 0.0552 ± 0.0013 | 0.0563 ± 0.0013 | 0.05204 ± 0.00052
18 | C114F | 0.0572 ± 0.0015 | 0.0577 ± 0.00078 | 0.053 ± 0.0013
19 | C114K | 0.0583 ± 0.0031 | 0.0586 ± 0.001 | 0.0563 ± 0.0029
20 | C114L | 0.0561 | 0.0583 ± 0.0015 | 0.0531 ± 0.0015
21 | C114W | 0.0586 ± 0.001 | 0.0592 ± 0.0013 | 0.05241 ± 0.00052
22 | C114T | 0.0583 ± 0.0015 | 0.05864 ± 0.00052 | 0.0544 ± 0.0039
23 | C114D | 0.0585 ± 0.00078 | 0.0588 ± 0.0018 | 0.0564 ± 0.0036

Row | Variant | sfGFP reporter fluorescence [1] | sfGFP reporter fluorescence ([2]; ligand: 1 µM Pb) | sfGFP reporter fluorescence ([2]; ligand: 30 µM Zn)
24 | C114I | 0.05717 ± 0.00052 | 0.0942 ± 0.0015 | 0.863 ± 0.012
25 | C114G | 0.052 ± 0.0015 | 0.0541 ± 0.00078 | 0.05 ± 0.00078
26 | C114H | 0.0581 ± 0.0023 | 0.0586 | 0.0563 ± 0.0034
27 | C114N | 0.0583 ± 0.0021 | 0.0579 ± 0.0015 | 0.0546 ± 0.0015
28 | C114S | 0.05754 ± 0.00052 | 0.05809 ± 0.00026 | 0.0544 ± 0.0018
29 | C114Q | 0.0568 ± 0.001 | 0.05864 ± 0.00052 | 0.0533 ± 0.0018
30 | C114E | 0.05699 ± 0.00026 | 0.0579 ± 0.001 | 0.0533 ± 0.0023
31 | C114A | 0.05607 ± 0.00052 | 0.0559 ± 0.0013 | 0.0542
32 | C114R | 0.0594 ± 0.001 | 0.06029 ± 0.00026 | 0.0564 ± 0.0015
33 | C114M | 0.05937 ± 0.00052 | 0.0603 ± 0.0013 | 0.0616 ± 0.0015
34 | L110Y | 0.0581 ± 0.00078 | 0.0597 | 0.0656 ± 0.001
35 | L110P | 0.0594 ± 0.0015 | 0.0581 ± 0.0018 | 0.0575 ± 0.0015
36 | L110I | 0.05571 ± 0.00052 | 0.0579 ± 0.0015 | 0.542 ± 0.036
37 | L110W | 0.057 ± 0.0018 | 0.0572 ± 0.0015 | 0.0537 ± 0.0023
38 | L110D | 0.0575 ± 0.0015 | 0.0586 | 0.0574 ± 0.00078
39 | L110N | 0.0579 | 0.05791 ± 0.00052 | 0.0627
40 | L110F | 0.05626 ± 0.00026 | 0.0599 ± 0.0018 | 0.0619 ± 0.0021
41 | L110H | 0.0638 ± 0.0021 | 0.081 ± 0.0042 | 2.52 ± 0.29
42 | L110T | 0.05736 ± 0.00026 | 0.0601 ± 0.001 | 0.158 ± 0.0029
43 | L110C | 0.05754 ± 0.00052 | 0.0577 ± 0.00078 | 0.0766 ± 0.0042
44 | L110E | 0.059 ± 0.001 | 0.0614 ± 0.0013 | 0.0579 ± 0.001
45 | L110V | 0.0601 ± 0.0021 | 0.06634 ± 0.00052 | 0.502 ± 0.065
46 | L110Q | 0.0555 ± 0.0013 | 0.057 ± 0.00078 | 0.05589 ± 0.00026

Row | Variant | sfGFP reporter fluorescence [1] | sfGFP reporter fluorescence ([2]; ligand: 1 µM Pb) | sfGFP reporter fluorescence ([2]; ligand: 30 µM Zn)
47 | L110S | 0.05626 ± 0.00026 | 0.05772 ± 0.00026 | 0.0614 ± 0.0018
48 | L110R | 0.0579 ± 0.0015 | 0.0596 ± 0.00078 | 0.06615 ± 0.00026
49 | L110K | 0.05772 ± 0.00026 | 0.05864 ± 0.00052 | 0.0792 ± 0.0021
50 | L110A | 0.0727 ± 0.0013 | 0.0698 ± 0.0018 | 0.0729 ± 0.0026
51 | L110M | 0.0568 ± 0.0015 | 0.05644 ± 0.00052 | 0.0574 ± 0.0023
52 | L110G | 0.05498 ± 0.00052 | 0.0548 ± 0.00078 | 0.0531 ± 0.0031
53 | V108I | 0.0566 ± 0.0013 | 0.0667 ± 0.0026 | 0.508 ± 0.011
54 | V108C | 0.0594 ± 0.0026 | 0.0788 ± 0.0015 | 1.04 ± 0.091
55 | V108R | 0.059 | 0.0788 ± 0.0021 | 0.8752 ± 0.0047
56 | V108H | 0.05772 ± 0.00026 | 0.0814 ± 0.0073 | 0.846 ± 0.019
57 | V108D | 0.061 ± 0.00078 | 0.0931 ± 0.0015 | 1.45 ± 0.068
58 | V108G | 0.057 ± 0.00078 | 0.0658 ± 0.0049 | 0.567 ± 0.1
59 | V108P | 0.0572 ± 0.0015 | 0.06011 ± 0.00052 | 0.0621 ± 0.0018
60 | V108E | 0.0579 ± 0.001 | 0.06652 ± 0.00026 | 0.62 ± 0.11
61 | V108T | 0.0588 ± 0.00078 | 0.0724 ± 0.00078 | 0.795 ± 0.063
62 | V108Y | 0.0608 ± 0.0015 | 0.108 ± 0.0021 | 1.18 ± 0.067
63 | V108M | 0.05662 ± 0.00026 | 0.0682 ± 0.0026 | 0.583 ± 0.019
64 | V108S | 0.0568 ± 0.0026 | 0.0696 | 0.772 ± 0.061
65 | V108N | 0.0574 ± 0.0013 | 0.06414 ± 0.00052 | 0.611 ± 0.073
66 | V108W | 0.0583 ± 0.001 | 0.072 ± 0.0029 | 0.554 ± 0.0067
67 | V108L | 0.0594 ± 0.001 | 0.0696 ± 0.0026 | 0.616 ± 0.035
68 | V108Q | 0.0566 ± 0.00078 | 0.068 ± 0.0018 | 0.672 ± 0.06
69 | V108K | 0.0607 ± 0.00078 | 0.0803 ± 0.0026 | 1.13 ± 0.093

Row | Variant | sfGFP reporter fluorescence [1] | sfGFP reporter fluorescence ([2]; ligand: 1 µM Pb) | sfGFP reporter fluorescence ([2]; ligand: 30 µM Zn)
70 | V108F | 0.0561 ± 0.001 | 0.0685 ± 0.001 | 0.436 ± 0.028
71 | V108A | 0.06304 ± 0.00052 | 0.0729 ± 0.0042 | 0.408 ± 0.11
72 | L107V | 0.0854 ± 0.001 | 0.19 ± 0.022 | 2.03 ± 0.021
73 | L107W | 0.0599 ± 0.0013 | 0.0638 | 0.118 ± 0.0013
74 | L107D | 0.0586 ± 0.0021 | 0.0596 ± 0.0018 | 0.0579 ± 0.0026
75 | L107G | 0.05956 ± 0.00026 | 0.0836 ± 0.0036 | 0.4444 ± 0.0044
76 | L107H | 0.05662 ± 0.00026 | 0.0535 ± 0.0021 | 0.0821 ± 0.0015
77 | L107S | 0.12 ± 0.0091 | 0.5454 ± 0.0042 | 2.27 ± 0.042
78 | L107K | 0.0561 ± 0.0057 | 0.05864 ± 0.00052 | 0.0861 ± 0.0026
79 | L107Y | 0.0603 ± 0.0013 | 0.06762 ± 0.00026 | 0.209 ± 0.0091
80 | L107F | 0.0528 ± 0.0015 | 0.0495 ± 0.0021 | 0.0636 ± 0.0039
81 | L107R | 0.059 ± 0.001 | 0.055 ± 0.0021 | 0.0781 ± 0.0031
82 | L107E | 0.05882 ± 0.00026 | 0.0746 ± 0.0096 | 0.288 ± 0.054
83 | L107P | 0.0568 ± 0.0015 | 0.0528 ± 0.0052 | 0.0621 ± 0.0018
84 | L107N | 0.0546 ± 0.0047 | 0.0759 ± 0.0015 | 0.511 ± 0.027
85 | L107I | 0.0579 ± 0.001 | 0.0671 ± 0.0036 | 0.808 ± 0.065
86 | L107Q | 0.0579 ± 0.0047 | 0.08521 ± 0.00078 | 0.764 ± 0.047
87 | L107T | 0.0797 ± 0.0054 | 0.282 ± 0.015 | 1.93 ± 0.22
88 | L107M | 0.0546 ± 0.0015 | 0.0605 ± 0.0026 | 0.371 ± 0.046
89 | P119A | 0.05992 ± 0.00026 | 0.0629 ± 0.0029 | 0.477 ± 0.05

Source: the supplement of paper PMC12783771
